What was measured:
[1] = molecular target: T1, Human OX40 (R&D Systems, 3388-OX) (human, UniProt P43489 29-216); assay: ELISA, plates coated with human OX40, IgG
T1 construct: bought; also called OX40-Fc; Human OX40 (R&D systems, #3358_OX)
T1 sequence (looked up): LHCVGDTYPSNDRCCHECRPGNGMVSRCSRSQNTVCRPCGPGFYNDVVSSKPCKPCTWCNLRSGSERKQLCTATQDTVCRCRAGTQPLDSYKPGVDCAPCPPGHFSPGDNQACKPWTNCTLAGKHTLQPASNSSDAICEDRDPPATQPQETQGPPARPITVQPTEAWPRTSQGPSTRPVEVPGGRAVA
Description: (§1) ELISA plates were coated with human OX40 (R&D Systems, 3388-OX), CD40 (Ancell), or CD137 (R&D Systems) at 0.1 or 0.5 μg/ml. The ELISA plates were washed with PBST and then blocked with PBST+2% BSA for 1 h at room temperature and then washed again with PBST. The antibodies were added in dilution series to the ELISA plates for 1 h at room temperature and then washed with PBST. Binding was detected using goat anti human kappa light chain HRP, incubated for 1 h at room temperature. SuperSignal Pico Luminescent was used as substrate and luminescence was measured using Fluostar Optima.

[2] = molecular target: T2, human OX40 overexpressed on CHO cells (human, UniProt P43489 29-214; P25942 194-277); assay: flow cytometry on CHO cells overexpressing human OX40, anti-huIgG-PE detection, MFI
T2 construct: extracellular domain;domain: transmembrane and intracellular part; also called hOX40; huOX40 (CHO)
T2 sequence (looked up): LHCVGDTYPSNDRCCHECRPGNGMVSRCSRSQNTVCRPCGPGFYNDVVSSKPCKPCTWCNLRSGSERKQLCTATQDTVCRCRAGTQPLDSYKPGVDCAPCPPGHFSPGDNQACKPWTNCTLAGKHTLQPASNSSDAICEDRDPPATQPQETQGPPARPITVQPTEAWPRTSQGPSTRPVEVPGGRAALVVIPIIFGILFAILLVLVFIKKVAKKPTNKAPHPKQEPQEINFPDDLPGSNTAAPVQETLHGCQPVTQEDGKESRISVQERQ
Description: The extracellular part of human OX40 was fused to the transmembrane and intracellular part of hCD40 and cloned into pcDNA3.0. The vector was subsequently stably transfected into CHO cells. […] For the assay, the transfected cells were incubated with the test antibodies and controls for 30 min at 4° C. and then detected with a-huIgG-PE (Jackson Immunoresearch) 30 min 4° C. Cells were analyzed by flow cytometry with FACS Verse (BD Biosciences).

CD40 (Ancell) = CD40 (Ancell) (UniProt P25942 21-193, limits assumed); assay: ELISA, CD40 coated
Description: as §1

CD137 (R&D Systems) = CD137 (R&D Systems) (UniProt Q07011 24-186, limits assumed); assay: ELISA, CD137 coated
Description: as §1

[3] = molecular target: T1, Human OX40 (R&D Systems, 3388-OX); assay: SPR Biacore, human OX40 amine-coupled on CM5, antibody injected, 1:1 Langmuir
Description: Human OX40 (R&D systems, #3358_OX) was immobilized to the Biacore™ sensor chip, CM5, using conventional amine coupling. The tested antibodies and controls (serially diluted 1/3 or 1/2 100-2 nM) were analyzed for binding in HBS-P (GE, #BR-1003-68) at a flow rate of […]. The association was followed for 3 minutes and the dissociation for 20 minutes. Regeneration was performed twice using 50 mM NaOH for 60 seconds. The kinetic parameters and the affinity constants were calculated using 1:1 Langmuir model with drifting baseline. […] The kinetic parameters and the affinity constants were calculated using BIAevaluation 4.1 software.

murine OX40 = molecular target: T3, murine OX40 (murine, UniProt P47741 20-211, limits assumed); assay: ELISA
T3 construct: also called mouse OX40
T3 sequence (looked up): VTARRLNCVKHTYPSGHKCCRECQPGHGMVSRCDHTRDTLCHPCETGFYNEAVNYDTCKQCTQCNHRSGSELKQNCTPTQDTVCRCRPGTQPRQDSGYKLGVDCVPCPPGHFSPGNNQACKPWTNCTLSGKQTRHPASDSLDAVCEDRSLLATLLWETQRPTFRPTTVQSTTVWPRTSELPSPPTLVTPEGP

[4] = molecular target: T4, Construct 84: full length OX40 (human, UniProt P43489 29-277); assay: flow cytometry, 293-F cells transfected with the construct
T4 construct: whole, on cells
T4 sequence (looked up): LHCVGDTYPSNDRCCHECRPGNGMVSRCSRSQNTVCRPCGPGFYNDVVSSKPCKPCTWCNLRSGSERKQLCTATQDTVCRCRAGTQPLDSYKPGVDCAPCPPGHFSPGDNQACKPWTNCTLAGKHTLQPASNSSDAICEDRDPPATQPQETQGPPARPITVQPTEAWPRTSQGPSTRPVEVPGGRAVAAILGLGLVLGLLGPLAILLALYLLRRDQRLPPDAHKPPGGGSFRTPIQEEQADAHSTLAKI
Description: The transfected cells were incubated with human OX40 antibodies, human OX40L (hOX40L, RnD Systems), mouse OX40L (mOX40L, RnD Systems) and controls for 30 min 4° C. and then detected with a-huIgG-PE (Jackson Immunoresearch) 30 min 4° C. Cells were analyzed with FACS Verse (BD Biosciences). Binding to the different chimeric constructs were calculated as relative (mean fluorescence intensity) MFI compared to the binding of the isotype control.

5T4-Fc = molecular target: T5, 5T4-Fc (human, UniProt Q13641 32-355, limits assumed); assay: dual ELISA: OX40-Fc coated, detection with biotinylated 5T4-Fc and streptavidin-HRP, luminescence
T5 construct: obtained from Peter L. Stern, University of Manchester; also called h5T4-Fc; recombinant 5T4
T5 sequence (looked up): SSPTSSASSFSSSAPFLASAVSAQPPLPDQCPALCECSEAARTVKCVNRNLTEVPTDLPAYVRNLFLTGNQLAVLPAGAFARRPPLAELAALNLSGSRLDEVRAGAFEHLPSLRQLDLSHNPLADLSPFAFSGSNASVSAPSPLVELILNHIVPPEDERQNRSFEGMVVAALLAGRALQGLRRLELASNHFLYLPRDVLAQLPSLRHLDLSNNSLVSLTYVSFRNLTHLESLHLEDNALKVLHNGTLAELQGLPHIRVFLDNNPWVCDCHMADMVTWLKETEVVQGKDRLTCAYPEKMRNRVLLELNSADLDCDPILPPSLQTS
Description: A dual ELISA was used to detect simultaneous binding of the two targets by the bispecific antibodies. ELISA plates were coated with OX40-Fc (R&D systems, #3388-OX, 0.5 μg/ml) over night at 4° C. followed by blocking with PBST+2% bovine serum albumin (BSA) for 1 h at room temperature (RT). […] Biotinylated 5T4-Fc (0.5 μg/ml), followed by HRP-labelled streptavidin (Pierce #21126) were used for detection. Super signal ELISA Pico Chemiluminescent Substrate (Thermo Scientific, #37069) was used as substrate and luminescence was measured using FLUOstar Optima.

[5] = molecular target: Macaca mulatta OX40 on HEK cells (Macaca mulatta; human); assay: flow cytometry, macOX40-HEK cells; ends of the 95% confidence interval
Description: For the assay, the transfected cells were incubated with the test antibodies and controls for 30 min at 4° C. and then detected with a-huIgG-PE (Jackson Immunoresearch) 30 min 4° C. Cells were analyzed by flow cytometry with FACS Verse (BD Biosciences).

Sequence of CD137 (R&D Systems) (Q07011 24-186 limits assumed): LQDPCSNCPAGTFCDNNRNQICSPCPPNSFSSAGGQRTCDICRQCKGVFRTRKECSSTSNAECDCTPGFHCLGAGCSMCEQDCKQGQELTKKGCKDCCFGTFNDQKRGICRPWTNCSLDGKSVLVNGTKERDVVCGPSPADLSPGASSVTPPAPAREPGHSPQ
Sequence of CD40 (Ancell) (P25942 21-193 limits assumed): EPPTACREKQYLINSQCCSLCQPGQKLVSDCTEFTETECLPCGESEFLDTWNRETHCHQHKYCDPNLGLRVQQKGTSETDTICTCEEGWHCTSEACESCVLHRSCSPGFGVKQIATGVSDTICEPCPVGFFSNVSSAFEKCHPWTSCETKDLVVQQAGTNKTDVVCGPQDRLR

B1: 1164/1135 (antibody, V domains shown)
VH: EVQLLESGGGLVQPGGSLRLSCAASGFTFYGSSMYWVRQAPGKGLEWVSGIYSSGGYTSYADSVKGRFTISRDNSKNTLYLQMNSLRAEDTAVYYCARGVPHGYFDYWGQGTLVTVSS
VL: not shown
notes: OX40 antibody, tested as IgG
For B1, the EC50 [1] was under 1 nM, the “EC50 (read off the curve)” value [2] was about 0.01 µg/mL and the binding result (CD40 (Ancell)) was “no binding”. The binding result (CD137 (R&D Systems)) was “no binding”, the Kd [3] was 0.308 nM and the koff [3] was 7.73e-05 s⁻¹. For the same binder, the kon [3] was 251000 M⁻¹ s⁻¹, the binding result (murine OX40) was “no binding” and the “relative MFI” value [4] was 27.5 fold over isotype control.

B2: 1524/1525 (antibody, V domains shown)
VH: EVQLLESGGGLVQPGGSLRLSCAASGFTFGSYYMGWVRQAPGKGLEWVSSIGSYYGYTYYADSVKGRFTISRDNSKNTLYLQMNSLRAEDTAVYYCARHDYGALDYWGQGTLVTVSS
VL: DIQMTQSPSSLSASVGDRVTITCRASQSISSYLNWYQQKPGKAPKLLIYAASSLQSGVPSRFSGSGSGTDFTLTISSLQPEDFATYYCQQYGPSGLFTFGQGTKLEIK
notes: OX40 antibody, tested as IgG
In the case of B2, the EC50 [1] is reported as under 1 nM, the “EC50 (read off the curve)” value [2] is reported as about 0.05 µg/mL and the binding result (CD40 (Ancell)) is reported as “no binding”. The binding result (CD137 (R&D Systems)) was “no binding”, the Kd [3] was 0.811 nM and the koff [3] was 0.00139 s⁻¹. The kon [3] was 1.71e+06 M⁻¹ s⁻¹, the binding result (murine OX40) was “no binding” and the “relative MFI” value [4] was 31.4 fold over isotype control.

B3: 1166/1167 (antibody, V domains shown)
VH: EVQLLESGGGLVQPGGSLRLSCAASGFTFGGYYMSWVRQAPGKGLEWVSAISGSGGSTYYADSVKGRFTISRDNSKNTLYLQMNSLRAEDTAVYYCARYDYASMDYWGQGTLVTVSS
VL: DIQMTQSPSSLSASVGDRVTITCRASQSISSYLNWYQQKPGKAPKLLIYAASSLQSGVPSRFSGSGSGTDFTLTISSLQPEDFATYYCQQYYWYGLSTFGQGTKLEIK
B3: no binding (tested: about 80 nM (log[conc ab] 1.9)) (5T4-Fc); no binding (CD40 (Ancell)); no binding (CD137 (R&D Systems)). For the same binder, the EC50 [5] was 0.16 to 0.242 µg/mL and the binding result (murine OX40) was “no binding”.
